Measurements reported in publication PMC5389854, “Functional analysis of the GmESR1 gene associated with soybean regeneration”.

Target: GmESR1 (Glycine max cv. Dongnong 50, UniProt K7K6B8 5-391)
Experiment: EMSA; EMSA as in Kass et al. (2000); buffer, salt, pH and temperature not stated
Conditions: protein: recombinant; tags: His (pET-29b); label: digoxigenin-ddUTP; blunt

Sequence of GmESR1 (K7K6B8 entry or part of it): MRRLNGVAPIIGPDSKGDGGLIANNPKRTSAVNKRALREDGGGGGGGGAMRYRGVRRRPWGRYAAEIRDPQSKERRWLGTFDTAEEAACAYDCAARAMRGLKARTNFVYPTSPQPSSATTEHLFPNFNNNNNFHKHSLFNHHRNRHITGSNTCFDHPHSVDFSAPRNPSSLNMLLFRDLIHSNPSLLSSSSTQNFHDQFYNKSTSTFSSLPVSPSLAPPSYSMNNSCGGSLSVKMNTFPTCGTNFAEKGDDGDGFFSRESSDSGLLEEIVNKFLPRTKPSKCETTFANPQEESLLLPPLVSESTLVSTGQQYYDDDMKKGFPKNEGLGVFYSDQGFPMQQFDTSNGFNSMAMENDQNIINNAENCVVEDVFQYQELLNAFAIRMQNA

B1: mGCC-box probe (dsDNA)
DNA 1: ATCCATAAGATCCTCCACTAAAATAAGACCGATCAA
DNA 2: TTGATCGGTCTTATTTTAGTGGAGGATCTTATGGAT
  binding result: no binding
